According to the DeepSol protein solubility set:

Assay: soluble on expression in E. coli; label from the status in PepcDB or PDB records
For “MDIVLVGCKGFGKEHLRIYSKLGYDVSIVERDSNEAKRCSELFRVYKVYDNYEDALRSGSNIVDLVVPDGLHYEMGSLALKSKKHLLVEKPITPDIDSGISLIQQAEESKLKLMVAEQFYFDPSVNEAIRRINNGEIGKPHTVIVRHQSFRELKGWRNEKSMMGRGILIDEGTHYIDTLLNFGGRYRSLRSFVHRTWDFLGEDTAEAVFNFENGMHGLFFYSWNYPEYPLLPEFEIIGDAGSIYEDIGTKPTEPWDQRKRKTAYGDIIVNGKHIPVEPYDVIEREISGFLNAVEKDEPVPMPPDLALRDIITIDRIYKASSD”, the “soluble on expression in E. coli” value was “not soluble”. In the case of “MDKKVTDSTQRGYYIVYLFSEDMCRLYLTLTQRVTETPRDEMERVKQDIRQQIPVGGRVQTDNAIRLSASKRAKEYERSVAVYIAYSFDNLPSDEQLVSDLKTMIGYYRQYVERTEKMTPFKQSLSDRSVVEHIHFYITAKGFYYTQEEVMNLFLSLKTKPFVILSGISGTGKTKIAQWLAESVGATEDNGQFILIPVCPDWNDGSDLLGYVDIKGDFKPGPLTNVITEAENHPDKPYFVVLDEMNLARVEHYFSDVLSVMGSRRWENGRITLSRLLPKETAGRDLFLPPNVYIIGTVNMDETTHPFSKKVLDRANTIEFNRIRLDHLDFLRDLPTVAPLSGGQEWFAARLEHHHHHH”, the “soluble on expression in E. coli” value is reported as “not soluble”. In the case of “MDKQSLHETAKRLALELPFVELCWPFGPEFDVFKIGGKIFMLSSELRGVPFINLKSDPQKSLLNQQIYPSIKPGYHMNKKHWISVYSGEEISEALLRDLINDSWNLVVDGLAKRDQKRVRPG”, the “soluble on expression in E. coli” value is reported as “not soluble”. In the case of “MDKSNGLRVILFPLPLQGCINPMIQLAKILHSRGFSITVIHTRFNAPKASNHPLFTFLQIPDGLSETETRTHDITLLLTLLNRSCESPFRECLTKLLQSADSETGEEKQRISCLIDDSGWIFTQPVAQSFNLPRLVLNTYKVSFFRDHFVLPQLRREMYLPLQDSEQGDDPVEEFPPLRKKDLLQILDQESEQLDSYSNMILETTKASSGLIFVSTCEELDQDSLSQAREDYQVPIFTIGPSHSYFPGSSSSLFTVDETCIPWLDKQEDKSVIYVSFGSISTIGEAEFMEIAWALRNSDQPFLWVVRGGSVVHGAEWIEQLHEKGKIVNWAPQQEVLKHQAIGGFLTHNGWNSTVESVFEGVPMICMPFVWDQLLNARFVSDVWMVGLHLEGRIERNVIEGMIRRLFSETEGKAIRERMEILKENVGRSVKPKGSAYRSLQHLIDYITYF”, the “soluble on expression in E. coli” value is reported as “soluble”. For “MDKSSDAFRTISEVAELLELPQHVLRFWETRFKQIKPMKRGGGRRYYRPVDIDLLNGIKQLLYDQGYTIKGVQRLLKENGVAFVTAFGNGDLDAMNVVIEKKHGEQTSEVTSSKPKKSSFGLLSFMRNEVETSIGSVNVYKDKTDKALLQEILFELIECKRVLDRAR”, the “soluble on expression in E. coli” value was “not soluble”. For “MDKYHSMKELQNETIENEDWEIITEDRDSNVTILAIHGGGIEPATTELARVIANDGQFNYFAFNGMRTKGNNELHVTSINYDNDIAMDLVKTSESAITIHGCLGEDEIAYIGGKDNLLKERIVEELSQIGIEVKEAPSHMSGTQDNNIVNCTKNGVGVQIELTSSLRKSLFKNNKFNRKSRMDESNWDDKMYDFGQAINSAINLEHHHHHH”, the “soluble on expression in E. coli” value was “soluble”. For “MDLAAHIDHTLLKPTATLEEVAKAAEEALEYGFYGLCIPPSYVAWVRARYPHAPFRLVTVVGFPLGYQEKEVKALEAALACARGADEVDMVLHLGRAKAGDLDYLEAEVRAVREAVPQAVLKVILETGYFSPEEIARLAEAAIRGGADFLKTSTGFGPRGASLEDVALLVRVAQGRAQVKAAGGIRDRETALRMLKAGASRLGTSSGVALVAGEGGTLGY”, the “soluble on expression in E. coli” value was “soluble”. In the case of “MDLDQLDLNPRITAAVKRGRLKSVKEILCYSGPDLQRLTGLPSHDVQCLLRAASLHLRGSRVLSALHLFQQKESFPEQHQRLSLGCPVLDQFLGGGLPLEGITGLAGCSSAGKTQLALQLCLAVQFPRQYGGLEAGAVYICTEDAFPSKRLWQLIAQQRRLRTDAPEELIEKIRFSNHIFIEHAADVPHFVVSSTFRPQPSGRSSCSRWGPHCED”, the “soluble on expression in E. coli” value is reported as “soluble”. In the case of “MDLFDTPLAPLQVLDDAEGGVRYWPQLLAPAVAQAAFAALRDGADWQRHQRTMYDRVVDVPRLLASYRLDAPLPPGLPLQLLLAAVQAQLPAPYNAVGLNLYRDGRDSVAMHHDKLHTLLAPHPIALLSLGTPRRMQLRAKQGATRAITLELAPGSLLAMSHASQLTHEHGIPKTTRALGERISVVFRVRPPARMAAGQHGPHWEALTQTDLEHHHHHH”, the “soluble on expression in E. coli” value is reported as “soluble”. For “MDLFSQFFQENQKKFLSFAYSYTRNKAAAEDILMEAMVSLWENREKWEKDSNLHALLLTIIKNKSLNYLEHEQVRMKAEEAINTHKQRELDLRISTLEACEPATIFDTEIQRIVYKTLEQLPEQSRHIFILSRYHNTPNKKIAEQLGISIKSVEFHITKTLKLLRLELKDYLISLLF”, the “soluble on expression in E. coli” value was “not soluble”. For “MDLISGEADPSESRAAERPGTAPLQGLVTFNRLELNRILNLYGRMVAAGEWRDYAIDFLKDTAVFSIFRRASEVPIYRIVKDPRLARKQGAYSVIGASGQILRRGHELERVLLVIDRKLALV”, the “soluble on expression in E. coli” value was “not soluble”. For “MDLTASLEDDQREKLRQYTEFTHQQDYEVAIGTLASLNWNLEQAIEAHLMQEDKNDDEDPEILETIPAAASGRNAGASSSSRFEPEVINIEDDEMPATRGRRRGRAVTPDETTTVDNQVKRLRIDDGSSSSSNGAATHHRGAAIPRQKRGQATEPTPSSSGSSSASFSSRRGTRANPVPPPNQEPAHPESARQNGGILASRHNNHNNQQNNHHHHHQRIPINPRRVDVFNVDSDEDDDSMAIAYEDDDDGVHEVHHSEVCEKDRAISAFLAPKLGNEVVARGSGPPNGRIPMIPDGFSSVSDALRNFVAIFSDRFCSTPQTQAFMPPFYTEPLPAAVKEAFDHPNSEHRRPLLFYINHDRSIAANIFASQVLCSETVSTLIRHQYVLFPWDITSDSNLMLFLEYLQAANMGDVRTIIQRLAMSKIESFPLMAIVVKERNSYRLVDYCRGTDTSDQVMEKLLSGVSEYSDIRMNEQSERREREEREAIRNQQEAEYKASLAADKARMEAKQQEIEEQRLEEERKLREEEEECVRRQTVASTVPEEPPASAPLAEIINVKFRLPEGGQDMRRFRRLESIQTLINYLSSKGYSPDKFKYFNSDFPKKEITRHFDLSHNFADTKWPAREQIFVEEI”, the “soluble on expression in E. coli” value was “not soluble”. In the case of “MDLTELFAFLSIPSVSTDPARREDVRRAALWLEERLKARGFRTELHETPLHPILYAERFVDEKAPTVLVYGHYDVQPPDPLELWESPPFSPVVREGRIYARGAFDDKGQLFAHVLAAEEAPVNLKFLVEGEEEIGSPHLPPFVRANREKLRADVVLVSDGAMFAPHTPTLTYGLRGLCYLEVRLRGARRDLHSGAFGGVAPNPIQALGWLLARLKDEGTGRVLIPGFYERVRPVPEEEKALWPSLDEEALKRELGVEILPGEEGYAPLERLWARPTLDPNGIWGGYQGEGSKTVIPAEAGMKLSMRLVPDQDPEEVADQAEAYLKAVCPPGYALEVRRLHGGRPVLTDPFSPPMRLMARALEEVWGRPPVYTREGGTIPVVAELKETLGAPIVLLGLGLPDDNLHAPNEKLDLVNLEKGVEVIRRFHRLLAG”, the “soluble on expression in E. coli” value is reported as “soluble”. With “MDMDREQSVQHFLDLIKKSHRGKFKIYIGMIAGVGKSYRMLQEAHELLENGVDVQIGYIETHGRAGTEALMQGLPVIPRRKIFYKGKELEEMDVDAIIRLHPEIVIVDELAHTNVEGSLNEKRWQDVMTLLDEGINVISAINIQHIESVNEEVQEITGIEVKERVPDSVLQEADEVVNIDLTAEELISRLKAGKIYRPEKIQTALDNFFRTENILQLRELALKEVALRVEKKVENEVVMGVSVGIRHEKFMACISSHEKTPRRIIRKAARLATRYNTTFVALYVQTPRESMDRIDLASQRYLLNHFKLVAELGGEVIQVQSKDILGSIVKVCRDKQISSVCMGTPNLRFPHAICSILGYRKFLNNLSQANVDLIILA” the “soluble on expression in E. coli” value was “not soluble”.
